Laboratory results: patent publication US20190202925A1 (OPI VI IP HOLDCO, published 2019)
Numbering of substitutions follows the chain as printed. Where two headings read alike, the source gives them in different places.

T1: soluble human TNFR2 (human, UniProt P20333 23-257)
T1 construct: also called soluble TNFR2
T1 sequence (looked up): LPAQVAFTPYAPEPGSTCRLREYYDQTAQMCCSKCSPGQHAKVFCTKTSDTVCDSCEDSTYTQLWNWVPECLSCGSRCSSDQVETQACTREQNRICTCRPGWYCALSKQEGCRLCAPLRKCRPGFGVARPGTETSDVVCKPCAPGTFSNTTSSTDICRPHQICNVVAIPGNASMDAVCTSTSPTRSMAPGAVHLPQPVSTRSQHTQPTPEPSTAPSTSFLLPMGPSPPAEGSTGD

T2: soluble cynomolgus TNFR2 (cynomolgus, UniProt A0A2K5VET2 132-366)
T2 sequence: T1 sequence (looked up) with S16G, S36P, P117Q, N164H, E210A, S216G, M223V

B1: chimeric SBT-004 (antibody, V domains shown)
VH: EVQLQQSGPEVGRPGSSVKISCKASGYTFTDYIMHWVKQSPGQGLEWIGWVDPEYGSTDYAEKFKKKATLTADTSSNTAYIQLSSLTSEDTATYFCARDDGSYSPFDYWGQGVMVTVSS
VL: DIQMTQSPPSLSASLGDKVTITCQASQNINKYIAWYQQKPGKAPRLLIRYTSTLESGTPSRFSGSGSGRDYSFSISNVESEDIASYYCLQYVNLLTFGAGTKLEIK
notes: VH fused to a human IgG1 Fc domain; also called chSBT-004
B2: chimeric SBT-002 (antibody, V domains shown)
VH: QVTLKESGPGILQPSQTLSLTCSFSGFSLSTSGMGVGWIRQPSGKGLEWLAHIWWDDDKFYNPSLKSQLTISKDTSRNQVFLKLTSVVTADTATYYCARLTGTRYFDYWGQGTTLTVSS
VL: DVQMTQSPSSLSASLGGKVTITCKASQDINKFIAWYQHKPGKGPRLLIHYTSTLQPGIPSKFSGSGSGRDYSFSISNLEPEDIATYYCLQYGNLWTFGGGTKLEIT
notes: also called chSBT-002

What was measured:
soluble human TNFR2 [1] = biological target: T1, soluble human TNFR2; assay: competition ELISA: plate-bound soluble human TNFR2, competitor biotinylated TNFα, streptavidin-HRP, A450
Procedure: (§1) Soluble human TNFR2 (Sino Biological, 10417-H08H) or cynomolgus TNFR2 (Sino Biological, 90102-C08H) was coated on Nunc-Immuno™ plates at 0.1 μg/ml, 0.5 ug/ml, 1 μg/ml, and 5 μg/ml. […] Plates were developed using TMB and stopped with 3 M HCl.

soluble cynomolgus TNFR2 [2] = biological target: T2, soluble cynomolgus TNFR2; assay: competition ELISA: plate-bound soluble cynomolgus TNFR2, competitor biotinylated TNFα; IC50 relative to unlabelled TNFα = 1.00
Procedure: as §1

soluble cynomolgus TNFR2 [3] = biological target: T2, soluble cynomolgus TNFR2; assay: competition ELISA: plate-bound soluble cynomolgus TNFR2, competitor biotinylated TNFα, streptavidin-HRP, A450
Procedure: as §1

[4] = biological target: T3, cynomolgus TNFR2 on cells (cynomolgus); assay: flow cytometry on cynomolgus PBMC, antibody at 10 ug/mL, anti-human Fc-PE secondary
T3 construct: whole, on cells; also called cynomolgus TNFR2 on CD4+ and CD8+ T cells
Procedure: Cynomolgus peripheral blood mononuclear cells (PBMCs) from two independent donors were isolated by diluting whole blood (SNBL USA) 1:1 in PBS (Lonza), layering over Ficoll-Paque Plus (GE Healthcare), and centrifuging for 35 minutes at 400×g. The PBMC fraction was removed, washed 3 times in 2% FBS PBS and counted. 0.3×10⁶ PBMC were resuspended in Fixable Viability Stain 575V (BD) diluted 1:1000 in PBS and incubated for 10 minutes. PBMC were then washed twice in PBS to remove residual viability stain, resuspended in Horizon Brilliant Stain Buffer (BD) with 10 uL per test of human Fc receptor binding inhibitor (eBioscience), and incubated on ice for 20 minutes to block Fc receptors. […] PBMC were incubated 20 minutes on ice and then washed three times with 2% FBS PBS. To visualize TNFR2 chimeric antibody binding, PBMC were resuspended in goat anti-human Fc-PE F(ab′)₂ secondary reagent (Jackson ImmunoResearch) diluted 1:200 in 2% FBS PBS and incubated on ice for 20 minutes. Cells were then washed three times in 2% FBS PBS and resuspended in 200 uL 2% FBS PBS for flow cytometry analysis using a BD FACS Celesta instrument and FACS Diva software. T cells were analyzed for chimeric TNFR2 binding by gating on viable cells defined as lymphocytes using forward and side scatter and as T cells by anti-CD3 staining. CD4⁺ and CD8⁺ subsets were identified using commercial specific antibody conjugates.

soluble human TNFR2 [5] = biological target: T1, soluble human TNFR2; assay: competition ELISA, plate-bound soluble human TNFR2, biotinylated TNFα as competitor
Procedure: as §1
(§2) IC₅₀ values are reported in nM.

soluble human TNFR2 [6] = biological target: T1, soluble human TNFR2; assay: competition ELISA: plate-bound soluble human TNFR2, competitor biotinylated TNFα; IC50 relative to unlabelled TNFα = 1.00
Procedure: as §1, §2

soluble human TNFR2 [7] = biological target: T1, soluble human TNFR2; assay: as above; remark: listed apart in the source
Procedure: as §1

soluble human TNFR2 [8] = biological target: T1, soluble human TNFR2; assay: competition ELISA: plate-bound soluble human TNFR2, competitor biotinylated TNFα, streptavidin-HRP, A450; remark: listed apart in the source
Procedure: as §1

| Binder | IC50 (soluble human TNFR2 [1]) | Relative IC50 (soluble cynomolgus TNFR2 [2]) | IC50 (soluble cynomolgus TNFR2 [3]) | % CD4^+ ab^+ Donor 1 [4] | % CD4^+ ab^+ Donor 2 [4] | % CD8^+ ab^+ Donor 1 [4] | % CD8^+ ab^+ Donor 2 [4] | Average Relative IC50 (soluble human TNFR2 [5]) | Relative IC50 (soluble human TNFR2 [6]) | Relative IC50 (soluble human TNFR2 [7]) | IC50 (soluble human TNFR2 [8]) |
| --- | --- | --- | --- | --- | --- | --- | --- | --- | --- | --- | --- |
| B1 | 19.6 nM | 4.45 nM | 16.7 nM | 10.2% | 7.6% | 11.2% | 18.4% | 5.07 nM | 3.54 nM | 6.72 nM | 16.7 nM |
| B2 | 16.5 nM | 4.16 nM | 15.6 nM | 9% | 14.1% | 9.5% | 29% | 2.91 nM | 2.98 nM | 3.03 nM | 7.53 nM |
